# Source: publication PMC4549301 (2015)
# B1: GST–HCF-1rep1, wild type (HCF-1 residues 867–1071) [human] / Recombinant human O-linked β-N-acetylglucosamine transferase (OGT), wild type [human] (parent)
# chain 1: PAVTTLVVKGTTGVTTLGTVTGTVSTSLAGAGGHSTSASLATPITTLGTIATLSSQVINPTAITVSAAQTTLTAAGGLTTPTITMQPVSQPTQVTLITAPSGVEAQPVHDLPVSILASPTTEQPTATVTIADSGQGDVQPGTVTLVCSNPPCETHETGTTNTATTTVVANLGGHPQPTQVQFVCDRQEAAASLVTSTVGQQNGSV
# chain 2: MASSVGNVADSTGLAELAHREYQAGDFEAAERHCMQLWRQEPDNTGVLLLLSSIHFQCRRLDRSAHFSTLAIKQNPLLAEAYSNLGNVYKERGQLQEAIEHYRHALRLKPDFIDGYINLAAALVAAGDMEGAVQAYVSALQYNPDLYCVRSDLGNLLKALGRLEEAKACYLKAIETQPNFAVAWSNLGCVFNAQGEIWLAIHHFEKAVTLDPNFLDAYINLGNVLKEARIFDRAVAAYLRALSLSPNHAVVHGNLACVYYEQGLIDLAIDTYRRAIELQPHFPDAYCNLANALKEKGSVAEAEDCYNTALRLCPTHADSLNNLANIKREQGNIEEAVRLYRKALEVFPEFAAAHSNLASVLQQQGKLQEALMHYKEAIRISPTFADAYSNMGNTLKEMQDVQGALQCYTRAIQINPAFADAHSNLASIHKDSGNIPEAIASYRTALKLKPDFPDAYCNLAHCLQIVCDWTDYDERMKKLVSIVADQLEKNRLPSVHPHHSMLYPLSHGFRKAIAERHGNLCLDKINVLHKPPYEHPKDLKLSDGRLRVGYVSSDFGNHPTSHLMQSIPGMHNPDKFEVFCYALSPDDGTNFRVKVMAEANHFIDLSQIPCNGKAADRIHQDGIHILVNMNGYTKGARNELFALRPAPIQAMWLGYPGTSGALFMDYIITDQETSPAEVAEQYSEKLAYMPHTFFIGDHANMFPHLKKKAVIDFKSNGHIYDNRIVLNGIDLKAFLDSLPDVKIVKMKCPDGGDNADSSNTALNMPVIPMNTIAEAVIEMINRGQIQITINGFSISNGLATTQINNKAATGEEVPRTIIVTTRSQYGLPEDAIVYCNFNQLYKIDPSTLQMWANILKRVPNSVLWLLRFPAVGEPNIQQYAQNMGLPQNRIIFSPVAPKEEHVRRGQLADVCLDTPLCNGHTTGMDVLWAGTPMVTMPGETLASRVAASQLTCLGCLELIAKNRQEYEDIAVKLGTDLEYLKKVRGKVWKQRISSPLFNTKQYTMELERLYLQMWEHYAAGNKPDHMIKPVEVTESA
# Variants of: B1
# Experiment: in vitro HCF-1rep1-OGT binding assay (OGT pull-down, quantified immunoblot)
# Settings: with Recombinant human O-linked β-N-acetylglucosamine transferase (OGT), in the presence of UDP-GlcNAc, read off a plot
row,Variant,screen value (log2 fold change)
1,chain 1 PAVTTLVVKGTTGVTTLGTVTGTVSTSLAGAGGHSTSASLATPITTLGTIATLSSQVINPTAITVSAAQTTLTAAGGLTTPTITMQPVSQPTQVTLITAPSGVEAQPVHDLPVSILASPTTEQPTATVTIADSGQGDVQPGTVTLVCSNPPCATHETGTTNTATTTVVANLGGHPQPTQVQFVCDRQEAAASLVTSTVGQQNGSV [chain 1 E153A],0.8
